# Biological target: the molecule itself
# Assay: crystal structure
protein,measurement,value
nepetalactol-related short-chain dehydrogenase/reductase 3 (NEPS3) from Nepeta mussinii (enzyme) MANNSVMMKKKLEGKVAIVTGGASGIGEATARLFVKYGARAVVIADIQSELGRSVAESIGKERCSFVQCDVADEEQVKSMIEWTATTYGGLDVMFSNAGVLNSAAQTVKDLDLPLFDKVMRVNTRGAAVCVKQAARKMVELGRGGSIICNAGSSAVRGAHGVTDYVMSKHAVIGLVRSASMQLGAHSIRVNSVSPMAVATPLTRNQGISTPDDVQKFLMPFISLKGVPPTAEQVAEAAAFLGSDEAAFVTGHDLPVDGGVLCMPFLLGSA,stoichiometry N,4

# Source: PMC6513753 (Nature chemical biology, 2018)
